The source of these data is article PMC6747709 (2019).

What all share (assay): SPR
Experiment [1] addresses T1, CD47 extracellular domain (UniProt Q08722, biotin (enzymatically biotinylated; stated for the SPR experiment)).
Experiment [2] addresses T1, CD47 extracellular domain. The source holds these as a separate data set.
For experiment [3], the target named is T1, CD47 extracellular domain. The source holds these as a separate data set.
Experiment [4] has as its target T1, CD47 extracellular domain. This is another data set of the same source.
Experiment [5] concerns the target T1, CD47 extracellular domain. This is another data set of the same source.
The target in experiment [6] is T1, CD47 extracellular domain. The source holds these as a separate data set.

Like-named read-outs stand apart in the source and are kept apart here.

T1 sequence (Q08722 19-141): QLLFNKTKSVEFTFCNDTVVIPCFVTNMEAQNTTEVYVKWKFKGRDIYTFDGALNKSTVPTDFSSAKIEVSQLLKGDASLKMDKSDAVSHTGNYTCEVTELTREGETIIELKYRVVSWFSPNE

B1: Nb02 mutant M4 (VHH)
VHH: EVQLQASGGGLVQAGGSLRLSCAASGFTNERSQNMGWFRQAPGKEREGVACIQSRVVECWYADSVKGRFTISRDNAKNTVYLQMNSLKPEDTAVYYCAAPRAITGHSAVGEHMCDYWGQGTQVTVSS
For orientation: koff means the rate constant with which the complex falls apart. Read a low koff as a long-lived complex. Molecule B1 had a koff in experiment [1] of 0.000392 s⁻¹.

B2: Nb02 mutant M2 (VHH)
VHH: EVQLQASGGGLVQAGGSLRLSCAASGFTNERSQNMGWFRQAPGKEREGVACIQSRVVECWYADSVKGRFTISRDNAKNTVYLQMNSLKPEDTAVYYCAAPRAITWTVFVGEHMCDYWGQGTQVTVSS
In turn, B2 showed a koff in experiment [2] of 2.73e-05 s⁻¹.

B3: Nb02 quadruple mutant M7 (G107W, T108H, S109V, F110A) (VHH)
VHH: EVQLQASGGGLVQAGGSLRLSCAASGFTNERSQNMGWFRQAPGKEREGVACISSRVVECWYADSVKGRFTISRDNAKNTVYLQMNSLKPEDTAVYYCAAPRAITWHVAVGEHMCDYWGQGTQVTVSS
In turn, B3 displayed a koff in experiment [3] of 4.04e-05 s⁻¹.

B4: Nb02 mutant M3 (VHH)
VHH: EVQLQASGGGLVQAGGSLRLSCAASGFTNERSQNMGWFRQAPGKEREGVACIQSRVVECWYADSVKGRFTISRDNAKNTVYLQMNSLKPEDTAVYYCAAPRAITGHVFVGEHMCDYWGQGTQVTVSS
Turning to B4, the koff in experiment [4] is 0.000312 s⁻¹.

B5: Nb02 mutant M6 (VHH)
VHH: EVQLQASGGGLVQAGGSLRLSCAASGFTNERSQNMGWFRQAPGKEREGVACIQSRVVECWYADSVKGRFTISRDNAKNTVYLQMNSLKPEDTAVYYCAAPRAITWHVFVGEHMCDYWGQGTQVTVSS
With B5, the koff in experiment [5] amounted to 0.000117 s⁻¹.

B6: Nb02 mutant M1 (VHH)
VHH: EVQLQASGGGLVQAGGSLRLSCAASGFTNERSQNMGWFRQAPGKEREGVACIQSRVVECWYADSVKGRFTISRDNAKNTVYLQMNSLKPEDTAVYYCAAPRAITWHSFVGEHMCDYWGQGTQVTVSS
Regarding B6, in experiment [6], the koff was 0.000126 s⁻¹.
